Assays:
[1] = molecular target: T1, ELAV (rELAV) (Drosophila melanogaster?) (UniProt P16914); test: EMSA; conditions: EMSA: 50 mM Tris-HCl pH 7.5, 60 mM NaCl, 25 ug/ml tRNA, 0.5 mM DTT, 50 ug/ml acetylated BSA, 20 min; 4-6% native gel in 0.5x TBE at 4 C. Footprinting: …
T1 sequence: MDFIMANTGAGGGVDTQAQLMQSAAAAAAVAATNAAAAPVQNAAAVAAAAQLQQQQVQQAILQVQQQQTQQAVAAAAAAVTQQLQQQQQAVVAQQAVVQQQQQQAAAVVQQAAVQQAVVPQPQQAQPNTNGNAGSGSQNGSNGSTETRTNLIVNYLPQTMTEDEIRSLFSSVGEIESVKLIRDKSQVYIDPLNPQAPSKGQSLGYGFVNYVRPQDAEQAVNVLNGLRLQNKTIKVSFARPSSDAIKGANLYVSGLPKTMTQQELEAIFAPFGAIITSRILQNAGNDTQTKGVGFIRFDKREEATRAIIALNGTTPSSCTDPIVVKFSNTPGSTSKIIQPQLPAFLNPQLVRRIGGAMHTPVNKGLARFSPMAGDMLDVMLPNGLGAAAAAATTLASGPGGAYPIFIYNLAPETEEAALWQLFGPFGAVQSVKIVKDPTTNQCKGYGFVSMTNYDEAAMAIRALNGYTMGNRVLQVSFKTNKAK

[2] = molecular target: T2, ELAV (rELAV) (UniProt P16914 1-483); test: EMSA; EMSA: 50 mM Tris-HCl pH 7.5, 60 mM NaCl, 25 ug/ml tRNA, 0.5 mM DTT, 50 ug/ml acetylated BSA, 20 min; 4-6% native gel in 0.5x TBE at 4 C. Footprinting: complexes formed as for EMSA, 15 min at room temperature; conditions: protein: recombinant; tags: GST tag, cleaved off with PreScission protease
T2 sequence: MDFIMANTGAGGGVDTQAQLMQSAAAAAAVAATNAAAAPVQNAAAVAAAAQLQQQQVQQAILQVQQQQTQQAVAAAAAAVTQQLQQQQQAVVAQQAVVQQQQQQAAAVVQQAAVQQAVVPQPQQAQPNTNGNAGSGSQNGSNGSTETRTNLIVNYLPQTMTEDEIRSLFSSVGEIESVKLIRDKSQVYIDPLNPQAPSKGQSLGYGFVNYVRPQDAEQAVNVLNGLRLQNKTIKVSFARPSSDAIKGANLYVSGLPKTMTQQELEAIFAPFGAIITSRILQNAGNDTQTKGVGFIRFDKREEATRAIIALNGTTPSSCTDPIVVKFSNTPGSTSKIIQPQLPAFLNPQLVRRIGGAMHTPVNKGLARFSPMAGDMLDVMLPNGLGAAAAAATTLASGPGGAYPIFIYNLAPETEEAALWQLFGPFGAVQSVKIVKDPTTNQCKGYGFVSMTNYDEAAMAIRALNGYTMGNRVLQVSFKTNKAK

Molecule: CG4662 RNA
- Kd [1]: 80 nM

Molecule: 5PtaseI RNA
- Kd [1]: 24 nM

Molecule: Teh2 RNA
- Kd [1]: 430 nM

Molecule: Ect4 RNA
- Kd [1]: 100 nM

Molecule: GAAGCUAUUAUACAUUUUAUCUUAUAACUCUAUACUUUAUGUU (ssRNA) [M7H A(CU)2 in m3r]
- binding signal [2]: 2.5 fold lower affinity than M7H

From publication PMC11551757, “Phylogenomic instructed target analysis reveals ELAV complex binding to multiple optimally spaced U-rich motifs”
